Reference: the supplement of paper PMC9170038

Test system: MS2 coat protein
Assay: apparent KD of MS2 coat protein; higher = weaker reporter binding
Settings: Eterna round: R107
Procedure, shortened: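 For every design, apparent KD is the median of normalised binding-curve fits from its clusters. The RNA switches were transcribed on-chip from Illumina sequencing clusters and titrated with SNAP-549-labelled MS2 coat protein (twofold steps, 0.7 or 1.5 nM to 3 µM; 0.8–1.5 h to 10–20 min per step). Titrations used 100 mM Tris-HCl pH 7.5, 80 mM KCl, 4 mM MgCl2, without or with constant ligand.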

[1] = input ligand: theophylline 20 uM
[2] = input ligand: theophylline 2 mM
[3] = input ligand: tryptophan 2.4 mM

Sequence	apparent KD of MS2 coat protein (input ligand: arginine 13.2 mM) [nM]	apparent KD of MS2 coat protein (input ligand: none) [nM]	apparent KD of MS2 coat protein [1] [nM]	apparent KD of MS2 coat protein [2] [nM]	apparent KD of MS2 coat protein [3] [nM]
GUUGGUUUGCGAAGGAGCGGGUAUGUUGUCUACUGGAUCCUAACAUGAGGAUCACCCAUGUCCCAGGUAGGUCGCGCGGGCUUUG [12.aB]	34.1	28.3	56.3	52.2	38.2
AUAAGUAAUGUUUCGUGUAUUAUUACAGAUACCAGACUAUCCUAUGUCCCUUGGCAGCUGGAUUACAUGAGGAUCACCCAUGUUG [JR_ExcTheophyA_Sub001]	15.7		20.3		17.1
ACAUGAGGAUCACCCAUGUUCCUCAUUGAUACCAGUGAAAGAAGACGCCCUUGGCAGCGAGAAGAAGAAGAAGAAGUUUUUUUUU [6.B]	209		770		917
UUUUACGGCGAUCUGGGUUUACCAGAUCGGCGAGGACCGGUACGGCCGCCACUCGUGUUUCUUUGACAUGAGGAUCACCCAUGUA [whbob_SS_trypto A_f1]	28.9		42.5	39.2	
CUUGACAUGAGGAUCACCCAUGUUGGUAAACGAGGACCGGUACGGCCGCCACUCGGUUACGUGUAGUACCGGUAAGAUCCAGGGU [Default title]	24.8		42.6	39	
CCGUCACAUGAGGAUCACCCAUGUGGUGAUACCAGCAGUCGACCCUGCCCUUGGCAGCACAUUAUCAUAAAAGCAAUCAGCAACG [theeternabot_sameState_MS2_Theo_A_41]	57		269		135
GUUCGUCCUACGGCCGCCACUAAAACACAUGAGGAUCACCCAUGUUAGUAUCCUGGCUGGUGUGAUAGGACCGGGUAGGGAAGAA [theeternabot_exclusion_MS2_Trp_B_14]	11		13.6	10.8	
UCUUUCUAUAGUGAUACCAGACGUACAUGAGGAUCACCCAUGUUACAUUCUUGGUUAAAAGUCCCUUGGCAGCACGAUUUGUUCG [JR_Nu_ExcTheophyB_Sub027]	9.7		10.9		10.3
GUCGGAGUCGGAAGGAGCGACAUGAGGAUCACCCAUGUCUCCCGUUAUGGGAGUUCCUUAGGUCAGGUAGGUCGCCGACUCCGAC [#1 Exclusion - Arginine B Attempt #24 (Inspired by Omei)]	104	190	202	234	240
ACAUGAGGAUCACCCAUGUUCCUCAUUGAUACCAGUGAAAGAAGACGCCCUUGGCAGCGAGAAGAAGAAGAAGAAGAAGAAGAGG [6.A]	48.4	725	425	671	588
AUCCAGAGCCGAAGGAGCGCUAGAAGAUGACAUGAGGAUCACCCAUGUGUGUGAUGUGGCUAGCAGGUAGGUCGCGGACUGGAUU [Exclusion - Arginine B (Freestyle 13)]	20.1	22.4	28.1	33.5	18.7
AGUUUAGACACGGCCGCCACUCGUGACAGAUUUAGCAGUGGUCAACAUGAGGAUCACCCAUGUCUGAGGACCGGGUGUUGAGUUU [XTryp B #6]	78.9		176	217	
AGACGAGAAGAGGUUUACCCAUGUACAGAAGGAGCGUCGUUGACGACAGGUAGGUCGCUGAAAACAUGAGGAUCACCCAUGUUGA [#05 Exclusion - Arginine A]	62.9	31.1	35.3	39.7	31.7
AUUUGUACUUAGUGUUGAGUUCUGUCGGAAGGAGCGGAAUAUAAUCCAGGUAGGUCGCCGACAGACAUGAGGAUCACCCAUGUAA [#09 Exclusion - Arginine A]	28.2	38.3	38.9	34.7	32.3
CUGCCAUGCAGAGAUACCAGUGAGCCCAUAACAUGAGGAUCACCCAUGUACGCCGCAGACCACCCUUGGCAGCUCUGCAUGGCAG [&#$*@]	21.7	17.4	18.4	11.4	16.6
CGAAUACUGAGUGAUACCAGUGAAAGAUAACUGUAUACACAUGAGGAUCACCCAUGUACACACCCUUGGCAGCACACUAGAUCGA [Same State Theophylline B GF 2]	25.8		40		29.9
GAUGAUAUUGCAGAUACCAGACACAUGAGGAUCACCCAUGUCGCUGAGAUGCUGGAUCGUGUCCCUUGGCAGCUGCGAUAUCAUC [Brazil]	38.7		106		49.6
UGUAACAUGAGGAUCACCCAUGUGAGUGAUACCAGACUAGUGUUAGUCCCUUGGCAGCACGCUGGACAAAUGUGUAGUCUAUGCG [Same State - Theophylline A (Freestyle 20)]	40.2	72.7	112	62.6	70.5
UGAGUUAGACAAAAGUCUAGCUCUGGUGAAGGAGCGUCCGAAAGGACAGGUAGGUCGCACCACCUGAGGAUCACCCAGGUUCCUA [ArgAS 14 #OpenEnded #AlternativeMS2]	28.5	42.1	29.8	57.2	38.9

Sequence	apparent KD of MS2 coat protein (input ligand: arginine 13.2 mM) [nM]	apparent KD of MS2 coat protein (input ligand: none) [nM]	apparent KD of MS2 coat protein [1] [nM]	apparent KD of MS2 coat protein [2] [nM]	apparent KD of MS2 coat protein [3] [nM]
ACAUGAGGAUCACCCAUGUCACGGCACGAUACCAGCUGAUCCGGUGGCCCUUGGCAGCGUGACGUUUGGUCCCGCGGAUGACACG [ppmullin]	96.5		142		137
AGUCUUGAACGAAGGAGCGACGUACAUGAGGAUCACCCAUGUGUAGGAGCGAAAGCUCCACGUCAGGUAGGUCGCGUUCGAGACA [Omei Arginine B SS A v4]	12.1	11.7	14.4	12.5	13.9
AUAAGCUGUACCGGAAUAUCCUCAUGUAUACGAGGACCGGUACGGCCGCCACUCGAUAACAUGAGGAUCACCCAUGUAAUAAUAA [|T'-M'-Trp-Ms2|_Design20]	14.2		15.4	14.5	
GGUAUGUAUUCGGAAACGAAUGCAUACCAACGAGGACCGGUACGGCCGCCACUCGGCCGUGAUCAACAUGAGGAUCACCCAUGUA [Ex Tryptophan A 6]	16.3		21.5	20.2	
UUAAUCAUGUUAGAAAACUAAUAUGCAGAAGGAGCGUGAUAAAACACAGGUAGGUCGCUGAAGGGAACAUGAGGAUCACCCAUGU [AstrosSSArgA#9]	42.8	37	43.6	37.3	34.8
AGUGUCGGAGCGGCCGCCACUAGCACAUCUGGUCGCCAUGGCAACAUGAGGAUCACCCAUGUUGCUAGGACCGGGCUCAAUAUUU [Maengele]	8.37		10.9	8.8	
AAAACGCAACUCGAUACCAGUACACUGAGUCUUCGCCACGACAUGAGGAUCACCCAUGUGUACCCUUGGCAGCGACAGAGCCACA [theeternabot_exclusion_MS2_Theo_B_42]	43.4		84.9		57.7
UACUUGCUGACGGCCGCCACUAGAACAUGAGGAUCACCCAUGUAAGUGGUUGGUUCAUGGGUGACUAGGACCGGGUCAGCAAGAU [(Trp1)-(Ms2)-(T)'-(M)'-(Trp2)_Design19]	26.9		47.9	37.7	
UGACAUUGCUCAGAUACCAGACAUGAGCAUCAGCCAUGUGCCAACAAGUACAUAAUAAAAGUCCCUUGGCAGCUGAGCAAUGUCU [TheoBX 20 #MS2Left #AlternativeMS2 #Theo2]	13.2	11.3	16.2	68.4	11.3
CUGACGAGCUUUUUGUCAGGUUGUGUAGAUACCAGUUCUCUGGUGAACCCUUGGCAGCUAACAACAUGAGGAUCACCCAUGUGAU [theeternabot_exclusion_MS2_Theo_A_33]	38.5		96.5		69.8
AGCAUUGUAACAGAUACCAGACUUUUAAUGCCUCUAAUUACAUGAGGAUCACCCAUGUUUGUCCCUUGGCAGCUGUUAUGAUGCA [JR_ExcTheophyB_Sub009]	84.1		174		125
UAAAACAUGAGGAUCACCCAUGUAAAUGAUACCAGAGUGAUGAUCCUCCCUUGGCAGCAUAACGCUGAUUGGAAACAAUCAGCGA [Mat - Same State Theophlline A - Mod of Eli - D23]	28.8		144		75.8
UUCAGCUAGUCGGCCGCCACUGCUUGAGGAUCACCCAAGUAGGUCCACACUGCUUCGGCAGUGAGUAGGACCGGGACUAGCUGAG	10.9	10.1	14.4	10.1	25.8
AGUAGUUGACAAAAGUCAGCUACAACUGAAGGAGCGGGUGGGUGCCCAGGUAGGUCGCGGAAACAUGAGGAUCACCCAUGUAUAA [ArgAS 1 #BothOrNeither #OpenEnded]	37.3	13.1	19.4	21.7	21.7
AAUUCAGGGUCGGCCGCCACUGGUAUGGCGAGUCCUCGAACUUACAUGAGGAUCACCCAUGUGAACAGGACCGGGACAGCAUGGG [Exclusion Tryptophan B GF 22]	57.8	233	256	239	214
GCACGACAUGAGGAUCACCCAUGUGCAGAUACCAGUAAUGUAUAUUACCCUUGGCAGCUGAGUAGAUCUGGAGGGCUAUAGGUAA [Same State Theophylline A GF10]	11.5		18.7		14.1
AGCCAUGGAAACAUGGCGGCGGCAUGAGCGCGAGGACCGGUACGGCCGCCACUCGGGCGACAUGAGGAUCACCCAUGUUCCUCAA [ETA NP+V+V2 #21]	27.2	27.5	54.1	38.2	340
GAUGAACUAUUUGAUACCAGACUACAUGAGGAUCACCCAUGUGUGUUUAUACUUCUGUCAGUCCCUUGGCAGCAAAUAGUUUAUC [XTheo B #4]	47.3		95.2		40.4
